From article PMC6699766 (Nature plants, 2019) come the findings set out here.

This data set deals with the molecule itself. Nature of the data set: negative stain TEM.

B1: IsiA protein of Synechocystis sp. PCC 6803 (natural protein)
chain: not shown
Consider B1, for which the “stoichiometry N” value amounted to 18.

The term stoichiometry N denotes the number of molecules, sites or subunits per partner or assembly.
